According to patent publication US20170119854A1, “HIGHLY CONCENTRATED DRUG PARTICLES, FORMULATIONS, SUSPENSIONS AND USES THEREOF” (Intarcia Therapeutics, Inc., priority 2008, published 2017):

Test: In vitro release rate from implantable osmotic delivery device (RP-HPLC)
Format: physicochemical
Details: 37° C., out to 100 days
Experimental: For each study, a drug reservoir of an implantable osmotic delivery device was filled with 160 μl of one of the suspension formulations described in Example 2. The membrane ends of the osmotic pumps were placed into stoppered glass vials filled with 3 ml phosphate buffer solution (PBS), and the diffusion moderator ends of the osmotic pumps were placed into glass vials filled with 2.5 to 3 ml release rate medium (citrate buffer solution at pH 6.0 with 0.14 M NaCl and 0.2% sodium azide).
Each system was placed into a capped test tube, with the diffusion moderator side down, and partially immersed in a 37° C. water bath. At specified time points, the glass vials at the diffusion moderator ends were replaced with new glass vials filled with 2.5 to 3 ml release rate medium (citrate buffer solution at pH 6.0 with 0.14 M NaCl and 0.2% sodium azide). Samples were collected from the diffusion moderator ends of the osmotic pumps and analyzed using RP-HPLC.

omega interferon gave an approximate release rate of roughly 50 µg/day.
